± gives the standard deviation of the averaged measurements.
Legend:
Saccharomyces cerevisiae [1] = assay: protein stability index of tFT-peptide fusion (C-terminal peptide) (PSI (0-1 scale)); higher = more stable (slower turnover)
Experimental: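 MPS profiling in S. cerevisiae of the tFT-X12 degron library: putative degron peptides plus stable controls, 12 aa, fused to the C-terminus of a sfGFP-mCherry timer. Cells are FACS-sorted into 8 mCherry/sfGFP bins and deep-sequenced. PSI runs from 0 (unstable) to 1 (stable). Backgrounds are wild type, das1Δ and doa10Δ at 30 °C, and wild type, das1Δ, cdc34-1 and cdc53-1 at 37 °C; 2-3 technical replicates each.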

Saccharomyces cerevisiae [2] = assay: as above; details: genetic background: wild type; temperature: 30 C
[3] = genetic background: cdc34-1, temperature: 37 C
[4] = genetic background: cdc53-1, temperature: 37 C
[5] = genetic background: das1 deletion, temperature: 30 C
[6] = genetic background: das1 deletion, temperature: 37 C
[7] = genetic background: doa10 deletion, temperature: 30 C
[8] = genetic background: wild type, temperature: 30 C
[9] = genetic background: wild type, temperature: 37 C
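Note: PSI is a weighted mean of sequencing reads over stability bins, variants kept only with over 10 reads, mCherry proximal and sfGFP distal, peptide attached via GGGS linker.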

Row | Sequence | protein stability index (Saccharomyces cerevisiae [1]; [3]) | protein stability index (Saccharomyces cerevisiae [1]; [4]) | protein stability index (Saccharomyces cerevisiae [1]; [5]) | protein stability index (Saccharomyces cerevisiae [1]; [6]) | protein stability index (Saccharomyces cerevisiae [1]; [7]) | protein stability index (Saccharomyces cerevisiae [1]; [8]) | protein stability index (Saccharomyces cerevisiae [1]; [9]) | protein stability index (Saccharomyces cerevisiae [2])
1 | LSLPTPLPSPPA | 0.656 ± 0.044 | 0.695 ± 0.041 | 0.457 ± 0.027 | 0.629 ± 0.015 | 0.449 ± 0.019 | 0.456 ± 0.017 | 0.591 ± 0.0092 | 0.48 ± 0.022
2 | LSPLSPLLFRLI | 0.482 ± 0.04 | 0.509 ± 0.012 | 0.516 ± 0.055 | 0.62 ± 0.018 | 0.249 ± 0.0059 | 0.226 ± 0.013 | 0.37479 ± 6.6e-05 | 0.296 ± 0.016
3 | LSRLIFKVSVLM | 0.57 ± 0.0078 | 0.602 ± 0.0096 | 0.504 ± 0.026 | 0.5999 ± 0.0032 | 0.237 ± 0.032 | 0.231 ± 0.025 | 0.416 ± 0.038 | 0.445 ± 0.015
4 | LSRRFSLALFWT | 0.57 ± 0.016 | 0.683 ± 0.051 | 0.654 ± 0.0085 | 0.707 ± 0.026 | 0.1762 ± 0.0015 | 0.197 ± 0.031 | 0.317 ± 0.0078 | 0.279 ± 0.012
5 | LSSRGGRCRRLV | 0.714 ± 0.059 | 0.727 ± 0.028 | 0.652 ± 0.016 | 0.7555 ± 0.0039 | 0.321 ± 0.0092 | 0.37 ± 0.013 | 0.588 ± 0.017 | 0.481 ± 0.037
6 | LVFAFFLLSFFI | 0.478 ± 0.035 | 0.554 ± 0.015 | 0.478 ± 0.047 | 0.549 ± 0.00087 | 0.481 ± 0.025 | 0.466 ± 0.027 | 0.541 ± 0.02 | 0.425 ± 0.0078
7 | LVFSFFFLFFFM | 0.449 ± 0.053 | 0.47 ± 0.029 | 0.375 ± 0.03 | 0.46047 ± 0.00043 | 0.375 ± 0.027 | 0.287 ± 0.05 | 0.442 ± 0.11 | 0.394 ± 0.044
8 | LVLFYLWSSVWA | 0.4 ± 0.014 | 0.445 ± 0.0055 | 0.29 ± 0.032 | 0.4726 ± 0.0018 | 0.251 ± 0.01 | 0.279 ± 0.034 | 0.441 ± 0.0095 | 0.3819 ± 0.0021
9 | LVLLIQKFLTDK | 0.7442 ± 0.0063 | 0.7187 ± 0.0016 | 0.609 ± 0.024 | 0.695 ± 0.079 | 0.59 ± 0.017 | 0.617 ± 0.052 | 0.675 ± 0.015 | 0.553 ± 0.086
10 | LVLSFVMLVSGH | 0.183 ± 0.014 | 0.313 ± 0.02 | 0.202 ± 0.013 | 0.384 ± 0.031 | 0.149 ± 0.0053 | 0.185 ± 0.024 | 0.343 ± 0.024 | 0.289 ± 0.012
11 | LVPVWVGLRVLF | 0.422 ± 0.021 | 0.429 ± 0.0053 | 0.354 ± 0.042 | 0.537 ± 0.015 | 0.347 ± 0.018 | 0.328 ± 0.022 | 0.506 ± 0.014 | 0.421 ± 0.065
12 | LVSCGNFLVFCF | 0.299 ± 0.0056 | 0.311 ± 0.025 | 0.234 ± 0.021 | 0.387 ± 0.0079 | 0.211 ± 0.0058 | 0.234 ± 0.013 | 0.355 ± 0.0037 | 0.324 ± 0.0072
13 | LVSSYVPFFFAL | 0.6057 ± 0.0033 | 0.717 ± 0.046 | 0.664 ± 0.0071 | 0.752 ± 0.011 | 0.25 ± 0.0073 | 0.29 ± 0.031 | 0.388 ± 0.015 | 0.342 ± 0.011
14 | LVSVLLLFWFLF | 0.4146 ± 0.00025 | 0.368 ± 0.014 | 0.358 ± 0.05 | 0.515 ± 0.037 | 0.344 ± 0.021 | 0.324 ± 0.013 | 0.475 ± 0.017 | 0.394 ± 0.069
15 | LVYCWFAEYFLV | 0.323 ± 0.043 | 0.561 ± 0.011 | 0.448 ± 0.027 | 0.586 ± 0.0069 | 0.0883 ± 0.016 | 0.106 ± 0.0044 | 0.0859 ± 0.017 | 0.169 ± 0.027
16 | LVYLVCAYSECE | 0.44 ± 0.015 | 0.463 ± 0.039 | 0.275 ± 0.039 | 0.477 ± 0.0062 | 0.242 ± 0.019 | 0.274 ± 0.0093 | 0.477 ± 0.0088 | 0.332 ± 0.02
17 | LWCLVWGGVWGV | 0.458 ± 0.014 | 0.5417 ± 0.005 | 0.353 ± 0.041 | 0.555 ± 0.0028 | 0.34 ± 0.0085 | 0.343 ± 0.039 | 0.508 ± 0.012 | 0.447 ± 0.009
18 | LWFVIYLLCFFV | 0.394 ± 0.015 | 0.395 ± 0.0045 | 0.328 ± 0.022 | 0.482 ± 0.024 | 0.285 ± 0.0031 | 0.291 ± 0.04 | 0.452 ± 0.0078 | 0.348 ± 0.029
19 | MFFSWVLSISLT | 0.0242 ± 0.0074 | 0.058 ± 0.011 | 0.0335 ± 0.0093 | 0.0704 ± 0.0084 | 0.024 ± 0.0024 | 0.0234 ± 0.0076 | 0.0577 ± 0.011 | 0.0454 ± 0.021
20 | MIVAIQLVDHPP | 0.459 ± 0.033 | 0.547 ± 0.0094 | 0.414 ± 0.013 | 0.522 ± 0.0075 | 0.409 ± 0.016 | 0.426 ± 0.028 | 0.509 ± 0.034 | 0.484 ± 0.044

Row | Sequence | protein stability index (Saccharomyces cerevisiae [1]; [3]) | protein stability index (Saccharomyces cerevisiae [1]; [4]) | protein stability index (Saccharomyces cerevisiae [1]; [5]) | protein stability index (Saccharomyces cerevisiae [1]; [6]) | protein stability index (Saccharomyces cerevisiae [1]; [7]) | protein stability index (Saccharomyces cerevisiae [1]; [8]) | protein stability index (Saccharomyces cerevisiae [1]; [9]) | protein stability index (Saccharomyces cerevisiae [2])
21 | MLECIIHLTITR | 0.417 ± 0.072 | 0.577 ± 0.095 | 0.431 ± 0.038 | 0.507 ± 0.011 | 0.4306 ± 0.0039 | 0.444 ± 0.038 | 0.491 ± 0.019 | 0.483 ± 0.025
22 | MLSVVSFVSCTC | 0.181 ± 0.0023 | 0.17 ± 0.021 | 0.197 ± 0.017 | 0.29 ± 0.0063 | 0.1631 ± 0.0015 | 0.191 ± 0.027 | 0.237 ± 0.0063 | 0.255 ± 0.012
23 | MRVYLVLWADSC | 0.236 ± 0.034 | 0.345 ± 0.026 | 0.197 ± 0.015 | 0.361 ± 0.017 | 0.19 ± 0.015 | 0.184 ± 0.0039 | 0.337 ± 0.00094 | 0.247 ± 0.058
24 | MSIWKIFIWRLG | 0.524 ± 0.017 | 0.627 ± 0.037 | 0.494 ± 0.019 | 0.648 ± 0.028 | 0.132 ± 0.013 | 0.153 ± 0.024 | 0.2694 ± 0.00052 | 0.263 ± 0.019
25 | MVAHTVRVKCGI | 0.638 ± 0.049 | 0.66 ± 0.021 | 0.544 ± 0.031 | 0.674 ± 0.0096 | 0.557 ± 0.016 | 0.56 ± 0.056 | 0.6622 ± 0.0012 | 0.547 ± 0.13
26 | MVVILLVHWEYV | 0.15 ± 0.011 | 0.222 ± 0.032 | 0.172 ± 0.035 | 0.321 ± 0.017 | 0.17 ± 0.0031 | 0.171 ± 0.025 | 0.2768 ± 0.0012 | 0.262 ± 0.017
27 | MWFFFICYFLSV | 0.277 ± 0.0059 | 0.361 ± 0.034 | 0.246 ± 0.049 | 0.411 ± 0.015 | 0.262 ± 0.021 | 0.249 ± 0.02 | 0.369 ± 0.0076 | 0.263 ± 0.0072
28 | MYESIRILVNKV | 0.62 ± 0.015 | 0.707 ± 0.016 | 0.62 ± 0.022 | 0.697 ± 0.015 | 0.226 ± 0.0021 | 0.326 ± 0.038 | 0.491 ± 0.02 | 0.457 ± 0.052
29 | NFCVLLQFCVLV | 0.437 ± 0.023 | 0.477 ± 0.023 | 0.36 ± 0.024 | 0.4832 ± 0.0002 | 0.364 ± 0.017 | 0.36 ± 0.02 | 0.448 ± 0.0074 | 0
30 | NFSLFVHFLGLC | 0.668 ± 0.047 | 0.703 ± 0.024 | 0.606 ± 0.021 | 0.687 ± 0.027 | 0.361 ± 0.0091 | 0.399 ± 0.023 | 0.608 ± 0.025 | 0.445 ± 0.052
31 | NNGLLLDILIKA | 0.388 ± 0.034 | 0.399 ± 0.073 | 0.28 ± 0.044 | 0.463 ± 0.021 | 0.248 ± 0.0094 | 0.295 ± 0.028 | 0.4517 ± 0.0037 | 0.364 ± 0.059
32 | NTNITHHSVKLR | 0.671 ± 0.017 | 0.7346 ± 0.0071 | 0.64 ± 0.026 | 0.712 ± 0.044 | 0.644 ± 0.024 | 0.662 ± 0.038 | 0.689 ± 0.036 | 0.727 ± 0.034
33 | NVWCWGASCFFC | 0.709 ± 0.048 | 0.797 ± 0.01 | 0.684 ± 0.0069 | 0.773 ± 0.0087 | 0.3367 ± 0.0033 | 0.36 ± 0.021 | 0.561 ± 0.025 | 0.447 ± 0.023
34 | PALLLFLRNLLL | 0.714 ± 0.022 | 0.7282 ± 0.0042 | 0.6419 ± 0.0029 | 0.757 ± 0.017 | 0.304 ± 0.018 | 0.352 ± 0.059 | 0.542 ± 0.009 | 0.447 ± 0.012
35 | PAPANRPTPRPV | 0.666 ± 0.041 | 0.7177 ± 0.006 | 0.661 ± 0.03 | 0.722 ± 0.011 | 0.652 ± 0.014 | 0.6256 ± 0.006 | 0.7517 ± 0.0059 | 0.7 ± 0.028
36 | PCVCFIILGMLS | 0.42 ± 0.013 | 0.515 ± 0.012 | 0.322 ± 0.035 | 0.563 ± 0.01 | 0.285 ± 0.013 | 0.308 ± 0.016 | 0.52 ± 0.021 | 0.449 ± 0.012
37 | PFARIIDILLVI | 0.486 ± 0.022 | 0.5346 ± 0.0045 | 0.404 ± 0.042 | 0.5395 ± 0.00065 | 0.298 ± 0.0017 | 0.315 ± 0.022 | 0.495 ± 0.061 | 0.41 ± 0.026
38 | PFIPLLLAPALA | 0.4032 ± 0.0011 | 0.409 ± 0.0068 | 0.297 ± 0.036 | 0.458 ± 0.0089 | 0.275 ± 0.0074 | 0.307 ± 0.023 | 0.4205 ± 0.00058 | 0.441 ± 0.1
39 | PFPRCRLIFFFM | 0.5172 ± 0.0045 | 0.7266 ± 0.0031 | 0.549 ± 0.025 | 0.742 ± 0.043 | 0.106 ± 0.0088 | 0.115 ± 0.017 | 0.139 ± 0.019 | 0.171 ± 0.045
